Measurements reported in PMC4464295, “Orthogonal dual-modification of proteins for the engineering of multivalent protein scaffolds” (Beilstein Journal of Organic Chemistry, 2015).

T1: Erythrina cristagalli lectin (Erythrina cristagalli, UniProt P83410 1-239)
T1 construct: also called ECL
T1 sequence (looked up): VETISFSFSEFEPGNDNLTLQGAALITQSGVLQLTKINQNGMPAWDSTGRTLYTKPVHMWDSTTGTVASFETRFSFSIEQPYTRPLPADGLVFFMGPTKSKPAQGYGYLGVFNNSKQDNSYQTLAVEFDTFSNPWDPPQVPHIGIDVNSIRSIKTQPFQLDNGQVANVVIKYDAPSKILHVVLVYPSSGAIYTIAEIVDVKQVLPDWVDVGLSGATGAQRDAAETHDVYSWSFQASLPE

B1: Biotinylated thermophilic lipase from Thermoanaerobacter thermohydrosulfuricus with azidohomoalanine, carrying 1-2 galactose units (Gal-1) (enzyme)
chain: SQKAVEITYNGKTLRGMMHLPDDVKGKVPMVIMFHGFTGNKVESHFIFVKMSRALEKVGIGSVRFDFYGSGESDGDFSEMTFSSELEDARQILKFVKEQPTTDPERIGLLGLSMGGAIAGIVAREYKDEIKALVLWAPAFNMPELIMHESVKQYGAIMEQLGFVDIGGHKLSKDFVEDISKLNIFELSKGYDKKVLIVHGTNDEAVEYKVSDRILKEVYGDNATRVTIENADHTFKSLEWEKKAIEESVEFFKKELLKG
modifications: all Met replaced by azidohomoalanine (Aha), nine Aha residues; N-terminal Met/Aha excised; N-terminal Ser (Ser2) oxidised with NaIO4 to the aldehyde and joined to biotin hydroxylamine 1 by oxime ligation; 1-2 Aha residues joined to butynyl galactose 2 by CuAAC (positions not given)
B2: Biotinylated thermophilic lipase from Thermoanaerobacter thermohydrosulfuricus with azidohomoalanine, carrying 3-4 galactose units (Gal-3) (enzyme)
chain: B1 chain
modifications: all Met replaced by azidohomoalanine (Aha), nine Aha residues; N-terminal Met/Aha excised; N-terminal Ser (Ser2) oxidised with NaIO4 to the aldehyde and joined to biotin hydroxylamine 1 by oxime ligation; 3-4 Aha residues joined to butynyl galactose 2 by CuAAC (positions not given; two found by MS/MS, Table S5)

Biological target: T1, Erythrina cristagalli lectin
Test: SPR; BiacoreX; biotinylated TTL sample on streptavidin chip loaded to one third; at least five ECL concentrations (Gal-0 once at 100 µM ECL); equilibrium binding, Langmuir isotherm fit; KDs determined twice
Details: both partners purified

Row | Binder | Kd [µM]
1 | B1 | 70
2 | B2 | 60
